Positions count from the first letter of the chain named.
T1: 人源hCD73-His (北京义翘神州, Catalog 10904-H08H) (human, UniProt P21589 27-547)
T1 construct: Bought protein; also called 人CD73; not shown: His tag
T1 sequence (looked up): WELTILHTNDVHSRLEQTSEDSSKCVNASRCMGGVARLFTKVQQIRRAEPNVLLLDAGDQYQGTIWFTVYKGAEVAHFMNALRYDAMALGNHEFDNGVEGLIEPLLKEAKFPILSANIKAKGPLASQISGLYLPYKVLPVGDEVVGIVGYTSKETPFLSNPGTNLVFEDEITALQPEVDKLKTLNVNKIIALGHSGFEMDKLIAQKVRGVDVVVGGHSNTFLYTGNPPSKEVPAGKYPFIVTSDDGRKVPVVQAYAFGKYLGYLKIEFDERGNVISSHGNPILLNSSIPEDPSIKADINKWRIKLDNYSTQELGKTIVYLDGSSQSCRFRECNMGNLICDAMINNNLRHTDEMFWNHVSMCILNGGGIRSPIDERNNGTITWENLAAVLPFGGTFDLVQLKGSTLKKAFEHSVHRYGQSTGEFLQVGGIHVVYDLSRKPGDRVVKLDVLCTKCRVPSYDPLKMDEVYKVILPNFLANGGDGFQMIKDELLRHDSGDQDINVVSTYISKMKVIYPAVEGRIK

T2: CD73 on the cell membrane of MDA-MB-231 cells (human breast cancer cells) (human, UniProt P21589 27-549)
T2 construct: whole, on cells; also called 细胞膜CD73
T2 sequence (looked up): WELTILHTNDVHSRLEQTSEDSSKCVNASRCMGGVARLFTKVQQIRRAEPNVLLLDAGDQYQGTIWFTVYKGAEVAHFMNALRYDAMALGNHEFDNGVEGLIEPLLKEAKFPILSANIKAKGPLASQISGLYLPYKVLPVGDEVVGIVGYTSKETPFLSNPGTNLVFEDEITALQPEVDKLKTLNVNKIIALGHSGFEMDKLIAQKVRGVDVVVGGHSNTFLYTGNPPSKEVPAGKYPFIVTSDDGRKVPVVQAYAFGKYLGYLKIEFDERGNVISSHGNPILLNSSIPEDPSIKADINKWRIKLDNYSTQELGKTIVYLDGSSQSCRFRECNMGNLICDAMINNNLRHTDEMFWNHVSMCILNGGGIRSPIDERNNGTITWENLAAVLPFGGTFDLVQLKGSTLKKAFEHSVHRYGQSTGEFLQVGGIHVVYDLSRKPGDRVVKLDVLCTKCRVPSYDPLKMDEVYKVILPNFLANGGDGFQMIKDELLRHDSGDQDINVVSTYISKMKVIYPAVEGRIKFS

T3: 食蟹猴cCD73-His (近岸生物, Catalog CD3-C52H9) (cynomolgus monkey, UniProt A0A2K5V5U7 27-547)
T3 construct: Bought protein; also called 食蟹猴CD73; not shown: His tag
T3 sequence: T1 sequence (looked up) with M199T, T350A, V466I

T4: 鼠源mCD73-His (近岸生物, Catalog CD3-M52H9) (mouse, UniProt Q61503 29-551)
T4 construct: Bought protein; also called 小鼠CD73; not shown: His tag
T4 sequence (looked up): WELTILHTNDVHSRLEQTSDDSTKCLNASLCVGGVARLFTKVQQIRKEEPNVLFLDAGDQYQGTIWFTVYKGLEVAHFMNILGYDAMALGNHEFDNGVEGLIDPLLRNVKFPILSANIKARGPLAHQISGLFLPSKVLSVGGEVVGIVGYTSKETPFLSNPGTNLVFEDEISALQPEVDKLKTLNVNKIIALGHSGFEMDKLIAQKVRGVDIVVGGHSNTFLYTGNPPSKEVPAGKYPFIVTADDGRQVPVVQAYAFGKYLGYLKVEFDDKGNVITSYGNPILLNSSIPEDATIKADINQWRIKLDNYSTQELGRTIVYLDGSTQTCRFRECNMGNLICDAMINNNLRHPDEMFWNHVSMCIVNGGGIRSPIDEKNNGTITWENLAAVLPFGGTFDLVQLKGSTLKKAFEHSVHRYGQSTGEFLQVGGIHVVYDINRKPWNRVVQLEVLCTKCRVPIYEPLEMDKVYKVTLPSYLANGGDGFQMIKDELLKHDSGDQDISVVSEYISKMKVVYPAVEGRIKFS

B1: 抗体P59-L12 (antibody, IgG1, V domains shown)
VH: EVQLVESGGGLVQPGGSLRLSCAASGFSFDTYAMSWVRQAPGKGLEWVSAISGDTGVTGYADSVKGRFTISRDNSKNTLYLQMNSLRAEDTAVYYCARDRYAYLVDGWFDYWGQGTLVTVSS
VL: DIQMTQSPSSLSASVGDRVTITCRASQGISSYLAWYQQKPGKAPKLLIYAASSLQSGVPSRFSGSGSGTDFTLTISSLQPEDFATYYCQTSDFFPNPVTFGQGTKVEIK
B2: 抗体P59-L6 (antibody, IgG1, V domains shown)
VH: B1 VH
VL: B1 VL with Q89A, T90Q, S91Y, F94S, P95F, N96Y, P97G
B3: 抗体P59-L17 (antibody, IgG1, V domains shown)
VH: B1 VH
VL: B1 VL with S91W, D92S, F93G, F94W, N96D, P97Y, V98L
notes: also called P59-17
B4: 抗体P59-L1 (antibody, IgG1, V domains shown)
VH: B1 VH
VL: B1 VL with T90Q, S91A, D92S, F93Y, F94T, P95G, N96D

Legend:
[1] = biological target: T1, 人源hCD73-His (北京义翘神州, Catalog 10904-H08H); assay: SPR, Biacore T200, antibody captured on Protein A chip, hCD73-His as analyte from 32 nM, 1:1 model
[2] = biological target: T2, CD73 on the cell membrane of MDA-MB-231 …; assay: flow cytometry (MFI) on MDA-MB-231 cells, antibody from 10 ug/ml in 2-fold steps, anti-humanFc-PE
[3] = biological target: T3, 食蟹猴cCD73-His (近岸生物, Catalog CD3-C52H9); assay: ELISA, cCD73-His coated at 2 μg/ml, antibody from 4 μg/ml in 3-fold steps, anti-h-Kappa-HRP
[4] = biological target: T2, CD73 on the cell membrane of MDA-MB-231 …; assay: cell-based or functional assay
[5] = biological target: T4, 鼠源mCD73-His (近岸生物, Catalog CD3-M52H9); assay: ELISA, mCD73-His coated at 2 μg/ml, anti-h-Kappa-HRP detection; NA表示不结合或基本不结合
[6] = biological target: T1, 人源hCD73-His (北京义翘神州, Catalog 10904-H08H); assay: ELISA, hCD73-His coated at 2 μg/ml, antibody from 4 μg/ml in 3-fold steps, anti-h-Kappa-HRP

Binder	Kd [1]	koff [1]	kon [1]	EC50 [2]	EC50 [3]	IC50 of the inhibition of the enzyme activity of cell membrane CD73 (MDA-MB-231 cells, AMP/ATP luminescence assay) [4]	binding result [5]	EC50 [6]
B1	8.25 nM	0.0068 s⁻¹	827000 M⁻¹ s⁻¹	–	–	–	–	–
B2	1.85 nM	0.000198 s⁻¹	107000 M⁻¹ s⁻¹	–	–	–	–	–
B3	0.569 nM	0.000126 s⁻¹	221000 M⁻¹ s⁻¹	0.438 µg/mL	0.0427 µg/mL	0.127 µg/mL	no binding (tested: 4μg/ml (highest concentration tested))	0.0339 µg/mL
B4	7.67 nM	0.00557 s⁻¹	726000 M⁻¹ s⁻¹	–	–	–	–	–
